# Patent publication US5876717A (Ajinomoto Co., Inc., dated 1999)
# B1: Fv(TU27): single chain polypeptide of 240 amino acids consisting only of V regions of TU27 anti-IL-2 receptor β chain antibody (protein)
# scFv: MDILLTQSPAILSVSPGERVSFSCRASQSIGTSIHWYQQRTNGSPRLLIKYASESLSGIPSRFSGSGSGTDFTLSITSVDSEDIADYYCQQTNSWPTTFGGGTKLELKVDKSSGSGSESKSTQVKLEESGPGLVKPSQSLSLTCTVTGYPITSDYAWDWIRQFPGNKLEWMGYVSYSGSTDYNPSLKSRISISRDTSKNQFFLQLNSVTTEDTATYYCARGGFPYAMDYWGQGTTVTVSS
# B2: polypeptide Fv(TU25) (scFv)
# scFv: MDIQLTQSPAILSVSPGERVSFSCRASQTIGTSIHWYQQRTNGSPRLLIKYASESISGIPSRFSGSGSGTDFTLSINNVESEDIADYYCQQTNTWPTTFGSGTKLELKVDKSSGSGSESKSTQVKLEQSGGGLVKPGGSLKLSCAASGFAFSSYDMSWVRQTPEKRLNWVATFSSDGSDTDYPDSVKGRFTISRDNARNTLYLQMSSLRSEDTALYYCARGYPYAMDYWGQGTTVTVSS
# Tests used:
# [1] = test system: β chain of IL-2 receptor on the surface of each YT cell; assay: Inhibition of binding of 125I-labelled TU27 or TU25 antibody to YT cells; parameters: species or system human; conditions: 4° C.
# Experimental: (§1) In an RPMI-1640 culture medium containing 0.5% BSA and 0.02% NaN2 there were suspended 5×10^5 YT cells to which were added polypeptide Fv(TU27), TU27 antibody, polypeptide Fv(TU25) and TU25 antibody diluted with the same type culture medium to an appropriate concentration and then reacted for one hour at 4° C. Then a TU27 or TU25 antibody labelled with ^125 I according to the chloramine T method was added to the mixture which was subjected to a 2 hour reaction at 4° C., after which the radioactivity bound to cell surfaces was measured.
# β chain of IL-2 receptor = assay: Inhibition of binding of 125I-labelled IL-2 to MOLT4 cells transfected with cDNA for the β chain of IL-2 receptor; parameters: species or system human; conditions: 4° C.
# Experimental: To the resulting suspension were added polypeptide Fv(TU27), TU27 monoclonal antibody (originating in hybridoma FERM BP-2510), polypeptide Fv(TU25) and TU25 monoclonal antibody (originating in hybridoma FERM BP-3529) diluted with the same type culture medium to an appropriate concentration, and this was reacted for one hour at 4° C.
# [2] = target: β chain of human IL-2 receptor (human, UniProt P14784); assay: competition with 125I-labelled TU27 or TU25 antibody on YT cells
# Experimental: as §1, with “NaN_2” for “NaN2”, “^125I” for “^125 I”
Molecule,activity to inhibit the binding between TU27 or TU25 monoclonal antibody and the β chain of IL-2 receptor [1],activity to inhibit the binding of IL-2 to a β chain of an IL-2 receptor (β chain of IL-2 receptor),binding result [2]
B1,have activity to inhibit the binding,have activity to inhibit the binding of IL-2,–
B2,have activity to inhibit the binding,have activity to inhibit the binding of IL-2,binds
